Assay results reported in publication doi:10.1101/2020.10.15.341636 (bioRxiv, 2020).

B1: mAb 324 IgG (antibody, V domains shown)
VH: QVQLVQSGAEVKKPGASVKVSCKASGGTFNNYGISWVRQAPGQGLEWMGWMNPNSGNTGYAQKFQGRVTMTRDTSTSTVYMELSSLRSEDTAVYYCARVGDYGDYIVSPFDLWGRGTLVTVSS
VL: DIQMTQSPSSLSASVGDRVTITCRASQSITTYLNWYQQKPGKAPKLLIYDASNLETGVPSRFSGSGSGTDFTLTISSLQPEDFATYYCQQSYSTPPTFGQGTKVEIK
B2: Fab 324 (Fab, V domains shown)
VH: B1 VH
VL: B1 VL
B3: 324 Multabody (other)
VH: B1 VH
VL: B1 VL
B4: mAb 236 IgG (antibody, V domains shown)
VH: QVQLVQSGAEVKKPGASVKVSCKASGGTFTSYGINWVRQAPGQGLEWMGWMNPNSGNTGYAQKFQGRVTMTRDTSTSTVYMELSSLRSEDTAVYYCASRGIQLLPRGMDVWGQGTTVTVSS
VL: not shown
B5: mAb 298 IgG (antibody, V domains shown)
VH: QVQLVQSGAEVKKPGASVKVSCKASGGTFSTYGISWVRQAPGQGLEWMGWISPNSGGTDLAQKFQGRVTMTRDTSTSTVYMELSSLRSEDTAVYYCASDPRDDIAGGYWGQGTLVTVSS
VL: not shown
B6: mAb 52 IgG (antibody, V domains shown)
VH: QVQLVQSGAEVKKPGSSVKVSCKASGYTFTSYGISWVRQAPGQGLEWMGGIIPMFGTTNYAQKFQGRVTITADKSTSTAYMELSSLRSEDTAVYYCARDRGDTIDYWGQGTLVTVSS
VL: DIQMTQSPSSLSASVGDRVTITCRASQGISNNLNWYQQKPGKAPKLLIYAASSLESGVPSRFSGSGSGTDFTLTISSLQPEDFATYYCQQGNGFPLTFGPGTKVDIK
B7: 52 Multabody (other)
VH: B6 VH
VL: B6 VL

What was measured:
[1] = target: T1, SARS-CoV-2 prefusion S ectodomain (BEI NR52394) (SARS-CoV-2 Wuhan-Hu-1, UniProt P0DTC2, stabilised); test: BLI
[2] = target: T1, SARS-CoV-2 prefusion S ectodomain (BEI …); test: cryo-EM structure
[3] = target: T1, SARS-CoV-2 prefusion S ectodomain (BEI …); test: cell-based or functional assay

Row | Binder | binding result [1] | further results
1 | B1 | binds | 
2 | B2 |  | binding result [2]: binds
3 | B3 | binds | 
4 | B4 | binds | 
5 | B5 |  | IC50 of neutralization of SARS-CoV-2 pseudovirus (PsV) [3]: ~30 µg/mL
6 | B6 | binds | 
7 | B7 | binds | 
